The target of experiment [1] is PD-1 chimera: extracellular domain of human PD-1 with trans-membrane and cytoplasmic domains of human CD300a, … (human, UniProt Q9UGN4 181-299, limits assumed). Nature of the experiment: cell-based or functional assay.
Experiment [2] addresses T1, recombinant human PD-1 expressed with a C-terminal myc-myc-hexahistidine tag (human).
T1 construct: also called hPD-1-MMH; human PD-1-MMH
Nature of the experiment: SPR (Biacore), mAb captured, hPD-1-MMH injected, 25 C.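 Note: rate constants obtained by fitting sensorgrams to a 1:1 binding model, KD derived as kd/ka and half-life as ln2/(60·kd) in minutes.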 For orientation: Surface plasmon resonance follows binding to a sensor surface in real time, without labels.

Experiment [3] concerns the target T2, full length human PD-1 on HEK293 cells (HEK293/hPD-1) (human, UniProt Q15116 25-288).
T2 construct: also called human PD-1 expressing cells
Nature of the experiment: FACS, dose titration on HEK293/hPD-1 cells; end tied to H4H7798N by Table 21. (In general: In flow cytometry, cells or beads pass a laser one at a time.)

In a further experiment the target is T3, monkey PD-1 with mFc (monkey (MfPD-1)).
T3 construct: also called monkey PD-1-mFc; monkey PD-1 dimer
T3 chain: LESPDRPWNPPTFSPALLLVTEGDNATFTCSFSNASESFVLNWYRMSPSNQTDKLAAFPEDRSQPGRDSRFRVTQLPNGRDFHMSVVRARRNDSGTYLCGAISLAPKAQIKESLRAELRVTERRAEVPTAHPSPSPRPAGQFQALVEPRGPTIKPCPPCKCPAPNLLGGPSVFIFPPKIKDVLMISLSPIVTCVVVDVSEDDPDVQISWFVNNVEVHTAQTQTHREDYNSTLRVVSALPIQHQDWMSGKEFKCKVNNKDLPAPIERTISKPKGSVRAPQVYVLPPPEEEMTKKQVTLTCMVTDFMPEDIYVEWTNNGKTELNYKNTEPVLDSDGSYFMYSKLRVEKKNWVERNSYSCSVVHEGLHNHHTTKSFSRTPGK
Nature of the experiment: SPR (Biacore), monkey PD-1-mFc, 25 C; end of range tied to H4H7798N by Table 10.

The target in experiment [4] is T1, recombinant human PD-1 expressed with a …. Nature of the experiment: SPR (Biacore), hPD-1-MMH, 37 C; end of range tied to H2aM7796N by Table 5.
The target in experiment [5] is T2, full length human PD-1 on HEK293 cells …. Kind of experiment: FACS, dose titration on HEK293/hPD-1 cells; end tied to H2aM7796N by Table 21.
The target of experiment [6] is T4, dimeric biotinylated human PD-1 protein, human PD-1 extracellular domain with a C-terminal human Fc tag (human, biotinylated (sites not given)).
T4 construct: also called biot-hPD-1-hFc
Kind of experiment: competition ELISA: blocking 200 pM biot-hPD-1-hFc binding to coated hPD-L1-mFc; end tied to H2aM7796N (and H4xH9008P) by Table 13.

B1: H4H7798N (antibody, human IgG4 S228P, kappa, V domains shown)
VH: EVQLLESGGVLVQPGGSLRLSCAASGFTFSNFGMTWVRQAPGKGLEWVSGISGGGRDTYFADSVKGRFTISRDNSKNTLYLQMNSLKGEDTAVYYCVKWGNIYFDYWGQGTLVTVSS
VL: DIQMTQSPSSLSASVGDSITITCRASLSINTFLNWYQQKPGKAPNLLIYAASSLHGGVPSRFSGSGSGTDFTLTIRTLQPEDFATYYCQQSSNTPFTFGPGTVVDFRR
As usually defined, the Kd is the equilibrium constant for the complex coming apart. As a reminder, the koff is the rate constant with which the complex falls apart. The term kon denotes a measure of how fast the partners come together. A word on the t½: it is the time in which the quantity being followed falls by half. The term EC50 denotes the midpoint of the concentration-response curve. On to B1, for which the “Emax, AP1-Luc signal at 100 nM antibody (% of signal without anti-PD-1 antibody)” value in experiment [1] amounted to 343%. In experiment [2], the Kd is 3.01 nM, the koff is 0.000443 s⁻¹, the kon is 147000 M⁻¹ s⁻¹ and the t½ was 26 min. In addition, a half-maximal effect in experiment [3] (EC50) was put at 0.509 nM. The molecule also came in with a Kd with monkey PD-1 with mFc of 0.137 nM.

B2: H2aM7796N (antibody, mouse IgG2a, V domains shown)
VH: QVQLVESGGGVVQPGRSLRLSCAASGFTFSSYGMHWVRQAPGKGLEWVAIIWSDGDSEYNLDSVKGRFTISRDNSKNTLYLQMNSLRVEDSAVYYCARDRDLEDIWGQGTMVTVSS
VL: DIQMTQSPSSLSASVGDRVTITCRASQGIRNDLGWYQQKPGKAPKRLIYAASNLQSGVPSRFSGSGSGTEFTLTISSLQPEDFATYYCLQHNSYPLTFGGGTKVEIK
notes: Human variable domains, mouse IgG2a Fc; also called H2M7796N
As usually defined, the IC50 is the point on the concentration scale where inhibition reaches its midpoint. Turning to B2, in experiment [2], the Kd amounted to 286 nM, the koff is 0.00193 s⁻¹, the kon turned out to be 6730 M⁻¹ s⁻¹ and the t½ turned out to be 6 min. The Kd in experiment [4] amounted to 1510 nM. A half-maximal effect in experiment [5] (EC50) was put at 4.81 nM. This molecule also returned an IC50 in experiment [6] of 1.3 nM.

(Values after patent US20150203579A1 (Regeneron, published 2015).)
